We go through 25 sequences from the DeepSol protein solubility set.

The nature of the data set: soluble on expression in E. coli; label from the status in PepcDB or PDB records.
As to “MERTVKLRVKVDYSTYSALKEVEKEYREVLEDAINYGLSNKTTSFTRIKAGVYKTEREKHKDLPSHYIYTACEDASERLDSFEKLKKRGRSYTEKPSVRRVTIHLDDHLWKFNLDTISISTKRSRILISPTFPKIFWRYYNTEWRIASEARFRLMKGNVVEFYVIFKRDEPKPYEPKAFIPVDLNENSVSVLINSKPLLLETNTKKITLGYEYRRKAITTGKSTKDREVRRKLKRLRERNKKVDIRRKLAKLIVKEAFESRSAIVLEDLPRRTPEHMIKDVKDKQLRLRIYRSAFSSMKNAIIEKAREFGVPVVLVNPSYTSTVCPIHGANIVYQLDGGDAPRVGVCEKGKEKWHRDVVALYNLARRAGDVSPVPLGSKESHDPPTLSGWLRAKSLHSIMNEHKMIEMKVLEHHHHHH”, the “soluble on expression in E. coli” value is recorded as “soluble”.

In the case of “MESEFLYDLLQLPKEVAQPTEEELPRGGKKKYLSPNSKRNPKFEELQKVLMEWINTTLLPEHIVVRSLEEDMFDGLILHHLFQKLASLKLEVEEISLTSASQRHKLGVILEAVNQNLQVEEKQAKWSVETIFNKDLLATLHLLVALAKRFQPDLPLPDNVQVEVIHIESTKTGLKSDKQVEQLTECKSHKDQPLQDAFDELFKLAPEKVHAVQEAIVSFVNQKLERLGLSVQSLDTQFADGVILLLLIGQLEGFFLHLTEFYLTPSSPTEMLHNVTLALDLLKDEGLFSYPVNPEDIVNKDAKSTLRILYSLFQKHSLRAEGGGAHHATPN”, the “soluble on expression in E. coli” value was “soluble”.

On to “MESELSGISNENQISFFGFSAGSFSDSIFNIYVDAWEEVCSNEFKNSLKKLTDKDRLCLLSFPFSDKTNEKAFKMMKRFCVTNIFRIPASVTLPECKKMLIASAKEHKSLKQVEKEFDEKLEKIRQLRIKLAKRHDELEAVNNAIEVLHVMEKSQEQLISQKRIVPDSPTRMSPV”, for which the “soluble on expression in E. coli” value is “not soluble”. In the case of “MESIFHEKQEGSLCAQHCLNNLLQGEYFSPVELSSIAHQLDEEERMRMAEGGVTSEDYRTFLQQPSGNMDDSGFFSIQVISNALKVWGLELILFNSPEYQRLRIDPINERSFICNYKEHWFTVRKLGKQWFNLNSLLTGPELISDTYLALFLAQLQQEGYSIFVVKGDLPDCEADQLLQMIR”, the “soluble on expression in E. coli” value is “soluble”. On to “MESTKSYDIPILRNVSRSFSVHYRDYLQRCGIFVPKEGNSSGPDAYVVFHNGQTRYVVGFSFKFYHKSEFSKRNIEEEAKKFFKGVVSVLNDESFSSVQLRFQFVMVVCTSYGRSVVFSSEEQNIVEDASYLVTEHSSGSTLNESSRSCLQLVIVSQRNLEMYLGRDNVETLRKIGEASREEFSKDFSVWCETVFESMSNEYVSPLEQSNVTLRVARNIRPRTNEENRMQIEELQTAMKVERSVAASSSLSSSFDWNTFLREYCGLSEEDVAYCLPKVEDIDMDELPAVTKEILRDLGIDKPALRLKIRSSIRSYLANER”, for which the “soluble on expression in E. coli” value is on record as “soluble”. Consider “METDGDPTNEIPGSSMAFEVANHTVTEEPSPLDRILAEGRSFNGGNWSSDDLRSLLDGVMKYGTKIEAINYIHRNIVKKRSIEEIKAKIDEIREIIKEHKEIILPECYKNKWIEAGHHNITPPPFCQVDPNDDWSSIMGKIVDHHHGSINKTLPSLRDTYETLFENLALESKTHENAVVTKLLTAKATRTDSQNIRWPVIYRFMKACATLEEQMPALNELEAAVVSKVLDTIETEATTTPDTEKSILAGIFSECQQGNYRFCEQDYPPNVMAAVQLFVDPLRTRFHAIPEVASEVELINFTKDNQPSTSSN”, for which the “soluble on expression in E. coli” value is recorded as “not soluble”.

As for “METFYTIGRSPRADIRIKSQFVSRIHAVLVRKSSDDVQAAYRIIDGDEDGQSSVNGLMINGKKVQEHIIQTGDEIVMGLEHHHHHH”, the “soluble on expression in E. coli” value is listed as “not soluble”.

For “METIWIPHLHTALAYMHERFLELFILPDSCPSKKLEELQQKEGN”, the “soluble on expression in E. coli” value is on record as “not soluble”. With “METKYAFARQIIKEAGLFIKSKMSEQLDIQVKTQFDDLVTNVDQETQQLLMDRIHQTYPCDAILAEENDVRHPINQGNVWVIDPIDGTVNFIVQGSQFAVMIAYYEQGIGQFGLIYDVMADQLLAGGGDFEVTLNGDKLPAYQEKPLERSLIGCNAGMFARNDRNLAHLIAKTLGVRVYGGAGICMVKVMKQELLAYFSFIQPWDYAAAKVLGDKLGYVLLTIDGYEPDFQTRQKIMFVPKCQLTRIASFLTKDSAITLEDQ”, the “soluble on expression in E. coli” value is reported as “not soluble”.

“METNIVEVENFVQQSEERRGSAFTQEVKRYLERYPNTQYVDVLLTDLNGCFRGKRIPVSSLKKLEKGCYFPASVFAMDILGNVVEEAGLGQEMGEPDRTCVPVLGSLTPSAADPEFIGQMLLTMVDEDGAPFDVEPRNVLNRLWQQLRQRGLFPVVAVELEFYLLDRQRDAEGYLQPPCAPGTDDRNTQSQVYSVDNLNHFADVLNDIDELAQLQLIPADGAVAEASPGQFEINLYHTDNVLEACDDALALKRLVRLMAEKHKMHATFMAKPYEEHAGSGMHIHISMQNNRGENVLSDAEGEDSPLLKKMLAGMIDLMPSSMALLAPNVNSYRRFQPGMYVPTQASWGHNNRTVALRIPCGDRHNHRVEYRVAGADANPYLVMAAIFAGILHGLDNELPLQEEVEGNGLEQEGLPFPIRQSDALGEFIENDHLRRYLGERFCHVYHACKNDELLQFERLITETEIEWMLKNA”: the “soluble on expression in E. coli” value was “soluble”. Then “METSTIIDGGTSFVIDSEKKTITIYVKTADGSSVKAEGCTETVIESGTESTLNIKSSLIILKGNIIEFNCGGDPYTYGNQIKSLNVQGLKNLEKLNCSGNRLTELNIEGLNNLKELACRYNRLSSLDVAHLPALEFLWCTANLLTDLNLTGMSSLKRLGCNNNKLEVLNLEGLTSLEHLWCGNNLLNKLNLTDLKSLTGLNCEKNKLTELDLTGLTALEHLWCSKNLLTKLNLTKALHLQSLDCSSNMLTELNTEELNDLQYLNSSGNCLPLS”, with “not soluble”; and “MEVAPSFSSVLKDCAVIEGQDFVLQCSVRGTPVPRITWLLNGQPIQYARSTCEAGVAELHIQDALPEDHGTYTCLAENALGQVSCSAWVTVH”, with “soluble”. Regarding “MEVDCRVISRGKGRGPVLVSTEPLSFLGGVDPGTGRVIDQKHPLHGRSIRGKVLLIPGGKGSTVGSYVIFQMAKNETAPAAIICLNAEPIIATGAIMAGIPMVDRPSEDLLGLLEDSMEVEVDADEGKIRF”, the “soluble on expression in E. coli” value is “soluble”. “MEVITFESEAYKALVGKIEKIAGYVAEAQLPSEEKKETWLDSNQLAEALGISTRTLQRLRDENLISYSMLRGRCMYKLSEVERCLEERTIRCKPQTLEDFRKNYLTRTGNDKKG”: the “soluble on expression in E. coli” value is recorded as “not soluble”. For the sequence “MEVKIFNTQDVQDFLRVASGLEQEGGNPRVKQIIHRVLSDLYKAIEDLNITSDEYWAGVAYLNQLGANQEAGLLSPGLGFDHYLDMRMDAEDAALGIENATPRTIEGPLYVAGAPESVGYARMDDGSDPNGHTLILHGTIFDADGKPLPNAKVEIWHANTKGFYSHFDPTGEQQAFNMRRSIITDENGQYRVRTILPAGYGCPPEGPTQQLLNQLGRHGNRPAHIHYFVSADGHRKLTTQINVAGDPYTYDDFAYATREGLVVDAVEHTDPEAIKANDVEGPFAEMVFDLKLTRLVDGVDNQVVDRPRLAV”, the “soluble on expression in E. coli” value is listed as “soluble”. As to “MEWTEEIVSKGFALYVALSKKGFITSKEDEYFQWYEERGVQDFIRKVIEPTGKVMIFLDEQDGVIQMVPEVENETMSYTNDDLKKELGFKDNKEIHLFYFILFILIAELEQPYDTESADRMYLPMDELLDKMNGYIEQYERLGEEKLEELSDEYDVDVAGIVEAWGRMADFKEGATSHIRTKDNRRMYIEKTLKFLEKEKLIRIREHTNISVTNKMKNIISHYYHNVENKSKIHDLLLVTREGTVGEEEE”, the “soluble on expression in E. coli” value is on record as “not soluble”. For “MEYDVYVRVSKEDVHLLNYLLEVEEHMFNIRKYEDGVLKIITPFPEEAIKLLEGCKEMVDLEILEVKENPGEA”, the “soluble on expression in E. coli” value was “soluble”. With “MEYFNVGKIVNTQGLQGEMRVLSVSDFAEERFKKGSQLALFDDKDRFVQEVTIVSHRKQKHFDIIKFKDMYHINAIEKYKGYTLKVSKDNQGDLQEGEFYYHQIIGMAVYEKDVLIGHVKEILQPGANDVWIVKRQGKRDLLLPYIPPVVLNVDVPNKRVDVELMEGLDDEDLEHHHHHH”, the “soluble on expression in E. coli” value was “soluble”. With “MEYGIVYLLTNPVMPGLVKIGMTTQEGIDKRMKELYTTGVPIPFECKFACKVKKSDCLKIEKALHKAFDPQRINQNREFFRINVEQAQAILELFHHEDVTEEVTDEIQNDLTDEDKAASTKAQAKRPPLNFYEMGLQKGDILIWKDDPSISVTVLSERKVCYEGEETSISALSAKLKGYKVKHIQPTPHWFFNDRSLSEIYDETYPFEE”, the “soluble on expression in E. coli” value is “not soluble”. As for “MEYHMGNTMTKAIYDKFKSATPYGNKVATGPTPTEAVDITVSVGGFKVGDQNYPINPKITFTNNTGQAIPGGTEFQFDIPVSAPDNAKDQSGGGLKVIASGHTRANNIGGLDGVMHRVSFSLPAWKDLPAGGTYELDMVYYLPISGPANYSVISGGKEFAFKFEQPDLPIGDLNALEHHHHHH”, the “soluble on expression in E. coli” value is listed as “soluble”. Then “MEYPRVMIRFAVIGTNWITRQFVEAAHESGKYKLTAVYSRSLEQAQHFANDFSVEHLFTSLEAMAESDAIDAVYIASPNSLHFSQTQLFLSHKIHVICEKPLASNLAEVDAAIACARENQVVLFEAFKTACLPNFHLLRQALPKAGKLRKVFFNYCQYSSRYQRYLDGENPNTFNPAFSNGSIMDIGFYCLASAVALFGEPKSVQATASLLASGVDAHGVVVMDYGDFSVTLQHSKVSDSVLGSEIQGEAGSLVIEKLSECQKVCFVPRGSQMQDLTQPQHINTMLYEAELFATLVDEHLVDHPGLAVSRITAKLLTEIRRQTGVIFPADSVKLYLPK”, with “not soluble”; and “MEYSYIPSAALYNNADIFQFFPRNKRLNSHQKSRLDEHARKMAAFMMERQEEYRYYENLANQEQFSDDNGMESGFCSGATSTGQSASTSPAPVQLIPNPFFDPEYVAAKTQSPVKLVTNPFFNPELVEEIKKKSQKRNEKSAPVSA”, with “not soluble”; and “MFALHRHFPNPLPSNPSISRHEQKVADHLASIIKESYYGDTSVEESEYLVQEEYGDWEPEVFEPYDCVLPDQDDVLFGEKAVSREELDKAITFYRSGKIGSRPITTMHHSYRWIRTDAHMNKLRKYEKDKKAFQENVRVRLAQLTQRLYEEVKEKLDNGVNLHDSDLMAMALEINTREMKLQNFKASQSWITRWKQSHRIVSRRVTKFVTRKCLINKDAIKKNADDFVKNARTEISNYHPSMVFNCDQTGIQKELYPARSLAFMGEKTVERLAQSKSSLTHSFTFLPMIFLDGSMGPKAFMVIAEPKGQFPPSRPIPNCPNLEVRAGYKTHIMTKQLMCDFFESCVFIPSVPKKLYIMLDSWPAFKDHTTIKNLVPNGHDVVIRNIPEHTTGMIQPLDVYWNAPWKSLIKKFTAYALRTQTDYVIAQRNNAICMVSVLYHQISAEHFRPFLQHCWKKAGYVGAANTSSTPFLTPAQYCIDHGDTVICYHTGCNHLGFIRCARCKIFPARTGKNFSHILIVENVSFPIQYFFLNIAPFILVIP”, with “not soluble”. Then “MFDAVKKIVLSYRVSPNRDTLSAIKAIDDVLRKLASLPDDLSFVVDGNPIYRLAQHFFAQHGISFDVRQVIGLTNEDPVSEEFRPLKQIIERFNRTFKGNYRPTHGFGAEEGSVSFVTLFVAYFNFLRPHSALEGRVPVVIPELADLPHMPARWTKLIAMAQAFLQQEAA”, with “not soluble”; and “MFDFDGYMLRKAKSVNKALEAAVQMKEPLKIHESMRYSLLAGGKRVRPMLCIAACELVGGDESTAMPAACAVEMIHTMSLMHDDLPCMDNDDLRRGKPTNHMAFGESVAVLAGDALLSFAFEHVAAATKGAPPERIVRVLGELAVSIGSEGLVAGQVVDVCSEGMAEVGLDHLEFIHHHKTAALLQGSVVLGAILGGGKEEEVAKLRKFANCIGLLFQVVDDILDVTKSSKELGKTAGKDLVADKTTYPKLIGVEKSKEFADRLNREAQEQLLHFHPHRAAPLIALANYIAYRDN”, with “soluble”.
